We go through one substance from patent publication US20200016206A1.

The experiment concerns the target IL-2Rαβ (UniProt P01589). The experiment in a line: in vitro binding affinity against IL-2 as standard; method presumably the SPR of Example 2 (Biacore T-100, receptor-Fc captured, EC50 from RU against concentration).
Sequence of UniProt P01589 (P01589 22-213 limits assumed): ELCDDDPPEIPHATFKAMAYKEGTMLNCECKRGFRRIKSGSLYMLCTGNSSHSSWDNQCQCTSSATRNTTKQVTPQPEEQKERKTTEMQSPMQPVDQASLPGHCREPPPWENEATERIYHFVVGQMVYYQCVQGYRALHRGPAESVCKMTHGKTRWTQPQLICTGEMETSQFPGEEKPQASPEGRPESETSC

On to “RSLAIL-2 (rIL-2 with the aldesleukin sequence, releasably PEGylated with mPEG2-C2-Fmoc-20kD-NHS) (from UniProt P60568 22-153) (ligand)”, for which the fold decrease in affinity relative to IL-2 was determined as 60 fold.
